The record followed here is the supplement of paper PMC12636428.

The subject of this data set is Saccharomyces cerevisiae. The data set is described as follows: transcriptional activation domain activity (GFP:mCherry ratio, weighted mean of sorted bins, harmonized to initial dataset scale) (arbitrary fluorescence ratio units); higher = stronger transcriptional activation. To be noted: beta-estradiol 1 µM; induction time 4 h. The method, then:
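53-aa protein tiles (fungal proteins plus yeast TF control tiles) fused C-terminally to a DBD-estrogen-binding domain-mCherry synthetic TF, integrated in S. cerevisiae (URA3 locus) with a GFP reporter. Cells were induced with 1 uM beta-estradiol for 4 h at 30 C, FACS-sorted into 8 bins by GFP:mCherry ratio and barcodes sequenced. Activity is the read-weighted mean bin fluorescence (GFP:mCherry), averaged over barcodes (median 12); tiles under 50 reads were discarded. New active-learning values were harmonized by linear fit onto the scale of the initial (Hummel et al.) dataset. The assay saturates at low and high signal.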

On to “AIAEYKWVHLKKGAELTLIDVYDGCTRGLSGFSLTIRAMHFDFVLLVAFLFHL”, for which the “transcriptional activation domain activity” value is 50400.

For “AIATPVCAAGDFPGNLLLHHSITIPFIYVTLSFFYIFALFLFFLLSIFLVAWL”, the “transcriptional activation domain activity” value was 50300.

As to “AIEEIRQDNESRQRENRVVYDRTDKDNERNESLNHQQGIRLVIIDSIHQPVTT”, the “transcriptional activation domain activity” value amounted to 45700.

For the sequence “AIENGGASDGEPKKRVRKRGGRKNKARRDSAAAAAAAAAAAAAGGQSSAALAP”, the “transcriptional activation domain activity” value is below 6570.

Consider “AIEQFLDNLISQDMMSSNASMNSESHLHIRSPKKQHRYTELNQRYPETHPHSN”, for which the “transcriptional activation domain activity” value is 8240.

Take “AIFMSDGSQALCRLIYLIGIATRFFGLSMMLCIVVDVLNLVTFYLNVFYLIQW”: the “transcriptional activation domain activity” value was found to be 47500.

As to “AIGISGYVLPCLYRLALLVLNTTPNQPLDALLSFSHYTLQNSALAHFLPLFVN”, the “transcriptional activation domain activity” value was 53400.

On to “AIHRQLVESILGTTLRCTADISALDVSIADTLWYLLDGTARMVIQFFAVVLFA”, for which the “transcriptional activation domain activity” value amounted to 62700.

As to “AILDLAFYIRWQNNNYHLAPSIPLSKMYSNSLLVVLNARIKIVGGRNEYKTNS”, the “transcriptional activation domain activity” value came out at 31900.

In the case of “AILIRSIFRVAEFAGGCVVSFSLWMCHKTTCIFLRFDTLPLWLAMSLYCVVWP”, the “transcriptional activation domain activity” value was found to be 49700.

For “AILKCIACHNGAMDSVRLLSVLTVPSGPALAHVHLCLLRYLKNRVISEQFGPS”, the “transcriptional activation domain activity” value is 21100.

With “AILLFIELASMGGFTWHLLSGLFFGDVCLIYMDLDDTLFFLFVLVALFSQSFV”, the “transcriptional activation domain activity” value came out at 46700.

As for “AILLGEAYGYRILPFVPVWTIFATVNLAYAVCSTSWLLYWVYLVCCWPTLLIV”, the “transcriptional activation domain activity” value worked out at 55500.

Turning to “AILLLSAYVLFLVVWLIFFSRVILLIPFFPGTPYNLAMPVVLLGLFYCFVFTW”, the “transcriptional activation domain activity” value amounted to 32700.

Regarding “AIMIMCLLLFENEFLNIVAISFTALVLNELIMVALEITTWHIYMILAEIVTLF”, the “transcriptional activation domain activity” value is 55800.

For the sequence “AINFWFFLTVYYGFYNLVGLLWITKIFNMYSLNWWPPQLGFPPTFTFFSCFPL”, the “transcriptional activation domain activity” value amounted to 51500.

“AINTAKAEIDGVREIMTENIERVLERGEHMSVLVDKTGRLGENARDFRVRSRT”: the “transcriptional activation domain activity” value was found to be 29100.

Regarding “AINVSFLHWIYIFHATGKHKYASQLARYLKNLHEVHPPELSQWLIEVFRKCHI”, the “transcriptional activation domain activity” value was 61400.

On to “AINYASMCKQYERAEYTQRLMIELDPVLRHSWSRRLATWRLTETWTHYLVLNI”, for which the “transcriptional activation domain activity” value is 68900.

For the sequence “AIRRSFAHVFCLCCIMEFPTFILGLGSLYPSLRSNVFFALSFFATRIVLHLML”, the “transcriptional activation domain activity” value came to 65700.

For “AISKLGQIMLYILKCLGLLKVVRKDDQGRIVECNNLTLINLVLTYTGPLPERN”, the “transcriptional activation domain activity” value is 46000.

On to “AITRLSLVIDALKEGMRYDCDHVLETYQYDVLLVAGYFYLAAILDKSGVDPTA”, for which the “transcriptional activation domain activity” value came to 52000.

On to “AIYSNIMGFLGGVAWAMLVAHICQLFPNACAAAIVTRFFRIMYQWKWPQPVLL”, for which the “transcriptional activation domain activity” value came to 64900.

On to “AKAAEAVVAPEADAEKAEEAVVEKPKSTKGRKRKADEEDAEEVAAEANGAEAA”, for which the “transcriptional activation domain activity” value amounted to 28200.

For “AKADGKRGRTGTGARRGKGKKVTREARGRRKVKRRRGARAGKGSAGRERERGE”, the “transcriptional activation domain activity” value came out at 34800.

Take “AKAEAEIKTEAEVKAEAEAPADEEAQTAGGKKKKAKNKKKKKAAAAAAAAAEA”: the “transcriptional activation domain activity” value is 36300.

As for “AKAEAKTTKTAKKPTLEKKATTSKATTAKKPAAKPATKAKETKAAKEPKAKAA”, the “transcriptional activation domain activity” value is 40800.

With “AKANGAAKAAAVKPKDDSSDSSDSDSESDEEKAPAKAKEAKKAEVCTCCLSTV”, the “transcriptional activation domain activity” value was 17500.

Consider “AKDEGEEEEDGSTSLNGTGKGTGTGKTHRGARGSKKGKKDGNETTSKAKGDGV”, for which the “transcriptional activation domain activity” value amounted to 29500.

Turning to “AKDGEEEKEKPKRGRKRKEAPAAEGEAEGEAADDAEPPAKKTKPASKAAPASK”, the “transcriptional activation domain activity” value was found to be 23100.

Consider “AKDGELQTKKPRQRKPKAPAATGDADILEVKPKRTRTTRPKVSSYFAEPAAPL”, for which the “transcriptional activation domain activity” value was below 6570.

For “AKEDEGEKGKNKDKSKKEEEKKEEGEKKEEGEVKGVKEVEELKVEQPKEEVKL”, the “transcriptional activation domain activity” value is 17700.

With “AKEEKKEEKKEEAKAAEEVKPEETPAVEETKAEEAKVDEAKTEETPAVAAAAA”, the “transcriptional activation domain activity” value is 15700.

As for “AKEERKAKKKAEKEKAAVAGDAMEVDDSADKKEKKEKKRKRRESEAAGAVKVE”, the “transcriptional activation domain activity” value is 13300.

Consider “AKGAKKAKGAKKAKGAKKAAAGGAAAKAGAAAKAAKKAAKAKAAAAGGAAAAA”, for which the “transcriptional activation domain activity” value was 26000.

For “AKGEAEPKAKAKGKGKAKAQAESEGEEEEEEEEEEEVKGKGKSRAKSKPKAKA”, the “transcriptional activation domain activity” value is 53900.

“AKILRELFLLYQPPEELIPSLQQWYLLVQACSGIVTSSDFGNTLFGIARLCLP”: the “transcriptional activation domain activity” value turned out to be 30500.

Consider “AKKADAPAPAAPAKANKRKKAEESEAESEEEPAPAVKKPKVEQPKAAPKAAKA”, for which the “transcriptional activation domain activity” value was 26700.

With “AKKAKQEATTEGGEEGSTGKTAKAKETPPTEQKEGGEKKAKATKARGKAGKEA”, the “transcriptional activation domain activity” value is 27300.

Regarding “AKKESKADGEEKPKAARGKKRKVDEEAEEEEGAEKPASKKAKPVSKAKSAAGS”, the “transcriptional activation domain activity” value is 17000.

Regarding “AKLALILVLFEVYVKWFKLEKLYGRSDFLLVESLHYQYFCILCLCVVEFVIWH”, the “transcriptional activation domain activity” value came to 45300.

Take “AKLESCNPRAYLDPSTAPIATMARGNQRDKAREANLKKQAAQKKGNSMSGTEM”: the “transcriptional activation domain activity” value was found to be 44300.

With “AKMSVRPTVFGLNYIQLVAKLRLSLEDVRVEYLIYAAQILVLKDQFLRHEFHV”, the “transcriptional activation domain activity” value came out at 53000.

For the sequence “AKNLHLHILRHPSKWMKLYFYLWPLIVFYHIPLQSFFDFNAVFMLLQVARFPN”, the “transcriptional activation domain activity” value is 50100.

Turning to “AKNLKYLFKVVLSMKGVPSFESSCKIKLLGIHFYYDQVYVYSLSMPMWDVFVF”, the “transcriptional activation domain activity” value turned out to be 73300.

In the case of “AKPDVKKAKAAPVASPKPKAKAAKKVAEPAVEEKKVEEKAEKLAKKAKATKAE”, the “transcriptional activation domain activity” value was 32700.

Consider “AKQGEDDAEKSKRGRKRKESETLEANGEEAGDDAEPAAKKAKPASKPASKAAA”, for which the “transcriptional activation domain activity” value stood at 30100.

In the case of “AKRARKSSSSAAAKEEEGQPQQTAPAAAANGTAADEARADTTTASTKSDKKQK”, the “transcriptional activation domain activity” value is 28800.

With “AKRGQNEALAGAKPERGGAGAKQDARAARGRAQGSGVRGAGRGAAGRGQAQQV”, the “transcriptional activation domain activity” value came out at 41100.

As to “AKRGRASSNASSVQGSTGAASGSSRNKRGGAAEERAGSTSADLANKTADQRKR”, the “transcriptional activation domain activity” value worked out at 22900.

For “AKSAKGGSRRKSAATSTRTSAPRRSTGNDTGRSFKPAKDARGSSSGDAEDKIK”, the “transcriptional activation domain activity” value was 37200.

With “AKSAQRRADEPGVMSLGELAVLWVKRARHLGQSLLRVVLVSYAVDLPANCVAL”, the “transcriptional activation domain activity” value was 30100.

As for “AKSLRLTIDEVKMLHRPVIWYLIVMLVDTLTATYLQYNGFLLHRTHLRETLSV”, the “transcriptional activation domain activity” value amounted to 44200.

On to “AKSNKRRRASAPSSNTFKGSKRSASNASSQSKASNSNRVIKRARRASSASTKK”, for which the “transcriptional activation domain activity” value was determined as 20900.

With “AKVWKFHFHGSYTKISVHVINMIYCTMRGHEIPSLHIFKCDRLLTLSVLLGYI”, the “transcriptional activation domain activity” value worked out at 58200.

Regarding “AKYVTTSMEVTPVTFGTYRTVFLPNGGLFFAILTTIRDFVTRHGLHSKIAMIF”, the “transcriptional activation domain activity” value worked out at 54300.

Take “ALAVMFAEAVALSWWVSALKGQTLECLHFQWEVGQSVLKILLKRRFWGWVCVA”: the “transcriptional activation domain activity” value was 46700.

With “ALCEDRSQTWHPGTQLDFPQELLDQLNYYLVNLRKYFNNESILFLVYLGCVIF”, the “transcriptional activation domain activity” value is 59600.

Take “ALCRVAARALDTVRMLSTKVRLMLVHAFRRLEPLDVAFQSRSAVPMMSLGIQL”: the “transcriptional activation domain activity” value worked out at 66600.

As to “ALCSIAGLACFILFCFLRVRWPAMYAPRLNMKKHAPQPLPNSFLGWIVPVLRT”, the “transcriptional activation domain activity” value came out at 67400.

For the sequence “ALDDKGNRDAFYSVLVNLMSKLCWAIVQYLESNSLRATYVIEARISEYTKFSI”, the “transcriptional activation domain activity” value stood at 42500.

Consider “ALDFGLVVRHTTVQYPVPLRFGLLNGNFSFMPLIINSWNMISYILSIYSLVLL”, for which the “transcriptional activation domain activity” value was found to be 64200.

“ALDSEQRRKGMSKPAPKKRGRKPNPNKKPKPPRDPNEPPKKRGRKPNPNKKVT”: the “transcriptional activation domain activity” value worked out at 42300.

On to “ALEKDKKEEPKEDSKKDESKTEKKEEEDNKDENGRPKLVVKRLRKETTAAAAV”, for which the “transcriptional activation domain activity” value was determined as 20000.

As for “ALGLLFVCEQIELYPQTARIFGLRLIYVILLLHLFLPFTDSLPWLKTLFSILT”, the “transcriptional activation domain activity” value was found to be 54600.

Turning to “ALGLPARPVSHHILIAIPSGLPLRTHELFMQLLFEHLHLSAVMLVDRSIAQTY”, the “transcriptional activation domain activity” value turned out to be 55300.

Turning to “ALHHVAWWIIIFELFFTVGIIVALGLGGFGPHRGTVCRYLLYTTCSQACNSLY”, the “transcriptional activation domain activity” value was 35200.

For “ALHLVWSGSTIYVKPLPACLVDFDFFMRFISPFPHIYEDACGFLLTYARLIVH”, the “transcriptional activation domain activity” value is 89800.

Take “ALIHLPRPQNELVLTLIIRWLVRTTSPLGVIRAAQTHIGAIGYPDVWPTVLFF”: the “transcriptional activation domain activity” value amounted to 68900.

Turning to “ALILIFSQLTFTPYALESRNLHVAVRIFRVLIDLLEQAKSGKIRLTILQFLMR”, the “transcriptional activation domain activity” value amounted to 71100.

For the sequence “ALKALSFARLLVIAVLMDSFLFVFTSAILVIGIGTSFNQIACQVGIWWCIFLY”, the “transcriptional activation domain activity” value came to 58400.
